{"source": "patent US12698507B2", "about": "“Methods and compositions for conferring and/or enhancing herbicide tolerance using protoporphyrinogen IX oxidase of various cyanobacteria or variant thereof” (FarmHannong Co., Ltd., priority 2019, dated 2026)", "molecules": {"B1": {"name": "CyPPO19 V305M + F360T: variant of CyPPO19 PPO protein (SEQ ID NO: 1) (protein)", "chain": "MSEVDVAIVGGGLSGLSLAWRLQQSAPQYSVVLLEASDRLGGNITTQTAEGFVWELGPNSFAPTPALLQLIAEVGLQSELIRGDRHLPRYIYWRGQLYPLQPTRPLALATSNLLSPWGKVRAALGALGFVPPYLGSGDESVNSFFRRHLGQEVAERLVAPFVSGVYAGDPQQLSAAAAFRRIAQLEKLGGGLIAGALHLRRQQAPKPKPPTSVQMRPGELGSFKEGLAALPRAIAQQLKAPIHLQTPVQEITPDPKGGYLLRSGEQTWRARSVVLATPAYQTAELVAPFQPAIARVLATIPYPTMACVVLAYPAGLGRSVRPGFGVLIPRSQGIRTLGTIWSSCLFPQRTPAGWQVFTSTIGGATDPDLASLSEEAIVQQVQQDLNRLLDLPAAKARLLGMKVWRRAIPQYMVGYPEQWQQVTHALSQTPGLFLCSNYAEGVALGDRVEHGNRTAAAVAAYLSGGQP", "modifications": "Synthetic_PPO of Thermosynechococcus elongatus PKUAC-SCTE542 (comprising GenBank No. CP032152.1)"}, "B2": {"name": "CyPPO19 L327T + F360M: variant of CyPPO19 PPO protein (SEQ ID NO: 1) (protein)", "chain": "B1 chain with M305V, L327T, T360M", "modifications": "Synthetic_PPO of Thermosynechococcus elongatus PKUAC-SCTE542 (comprising GenBank No. CP032152.1)"}, "B3": {"name": "CyPPO19 L327T + F360T: variant of CyPPO19 PPO protein (SEQ ID NO: 1) (protein)", "chain": "B1 chain with M305V, L327T", "modifications": "Synthetic_PPO of Thermosynechococcus elongatus PKUAC-SCTE542 (comprising GenBank No. CP032152.1)"}, "B4": {"name": "CyPPO19 I408R + F360M: variant of CyPPO19 PPO protein (SEQ ID NO: 1) (protein)", "chain": "B1 chain with M305V, T360M, I408R", "modifications": "Synthetic_PPO of Thermosynechococcus elongatus PKUAC-SCTE542 (comprising GenBank No. CP032152.1)"}, "B5": {"name": "CyPPO19 I408W + F360I: variant of CyPPO19 PPO protein (SEQ ID NO: 1) (protein)", "chain": "B1 chain with M305V, T360I, I408W", "modifications": "Synthetic_PPO of Thermosynechococcus elongatus PKUAC-SCTE542 (comprising GenBank No. CP032152.1)"}, "B6": {"name": "CyPPO19 L327T + F360I: variant of CyPPO19 PPO protein (SEQ ID NO: 1) (protein)", "chain": "B1 chain with M305V, L327T, T360I", "modifications": "Synthetic_PPO of Thermosynechococcus elongatus PKUAC-SCTE542 (comprising GenBank No. CP032152.1)"}, "B7": {"name": "CyPPO19 L327T + F360L: variant of CyPPO19 PPO protein (SEQ ID NO: 1) (protein)", "chain": "B1 chain with M305V, L327T, T360L", "modifications": "Synthetic_PPO of Thermosynechococcus elongatus PKUAC-SCTE542 (comprising GenBank No. CP032152.1)"}, "B8": {"name": "CyPPO19 I408W + F360V: variant of CyPPO19 PPO protein (SEQ ID NO: 1) (protein)", "chain": "B1 chain with M305V, T360V, I408W", "modifications": "Synthetic_PPO of Thermosynechococcus elongatus PKUAC-SCTE542 (comprising GenBank No. CP032152.1)"}, "B9": {"name": "CyPPO19 L327T + F360V: variant of CyPPO19 PPO protein (SEQ ID NO: 1) (protein)", "chain": "B1 chain with M305V, L327T, T360V", "modifications": "Synthetic_PPO of Thermosynechococcus elongatus PKUAC-SCTE542 (comprising GenBank No. CP032152.1)"}}, "note": "Residue numbers refer to the chain shown, from its start. In names and notes the source's numbering stands."}
{"tested_on": "PPO-deficient BT3 E. coli (ΔPPO)", "experiment": "PPO-inhibiting herbicide tolerance test of PPO variants in E. coli (growth on herbicide-containing LB agar)", "format": "cell-based", "details": "CyPPO19 variants in BT3 (ΔPPO) E. coli; LB agar with 0 to 2,000 μM herbicide, 37° C., dark, 16-20 hours", "outline": "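Transformants were grown to OD600 0.5–1, adjusted to OD600=0.5 and spotted as 10-fold dilutions on LB agar with ampicillin (100 μg/mL) and 0 to 2,000 μM herbicide. Plates were kept at 37° C in the dark for 16-20 hours; growth was scored relative to wild type, one '+' per 10-fold resistance.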"}
{"molecule": "B1", "tolerance level relative to wild type, Carfentrazone": "+ (‘+’ per each 10-fold resistance)", "tolerance level relative to wild type, Flumioxazin": "++ (‘+’ per each 10-fold resistance)", "tolerance level relative to wild type, Fomesafen": "++ (‘+’ per each 10-fold resistance)", "tolerance level relative to wild type, Oxyfluorfen": "+ (‘+’ per each 10-fold resistance)", "tolerance level relative to wild type, Saflufenacil": "++ (‘+’ per each 10-fold resistance)", "tolerance level relative to wild type, Sulfentrazone": "+ (‘+’ per each 10-fold resistance)", "tolerance level relative to wild type, Tiafenacil": "++ (‘+’ per each 10-fold resistance)"}
{"molecule": "B2", "tolerance level relative to wild type, Carfentrazone": "+ (‘+’ per each 10-fold resistance)", "tolerance level relative to wild type, Flumioxazin": "+++ (‘+’ per each 10-fold resistance)", "tolerance level relative to wild type, Fomesafen": "+ (‘+’ per each 10-fold resistance)", "tolerance level relative to wild type, Oxyfluorfen": "++ (‘+’ per each 10-fold resistance)", "tolerance level relative to wild type, Saflufenacil": "+ (‘+’ per each 10-fold resistance)", "tolerance level relative to wild type, Sulfentrazone": "+ (‘+’ per each 10-fold resistance)", "tolerance level relative to wild type, Tiafenacil": "+++ (‘+’ per each 10-fold resistance)"}
{"molecule": "B3", "tolerance level relative to wild type, Carfentrazone": "+ (‘+’ per each 10-fold resistance)", "tolerance level relative to wild type, Flumioxazin": "+ (‘+’ per each 10-fold resistance)", "tolerance level relative to wild type, Fomesafen": "+ (‘+’ per each 10-fold resistance)", "tolerance level relative to wild type, Oxyfluorfen": "+ (‘+’ per each 10-fold resistance)", "tolerance level relative to wild type, Saflufenacil": "+ (‘+’ per each 10-fold resistance)", "tolerance level relative to wild type, Sulfentrazone": "+ (‘+’ per each 10-fold resistance)", "tolerance level relative to wild type, Tiafenacil": "++ (‘+’ per each 10-fold resistance)"}
{"molecule": "B4", "tolerance level relative to wild type, Carfentrazone": "+ (‘+’ per each 10-fold resistance)", "tolerance level relative to wild type, Flumioxazin": "++ (‘+’ per each 10-fold resistance)", "tolerance level relative to wild type, Fomesafen": "+ (‘+’ per each 10-fold resistance)", "tolerance level relative to wild type, Oxyfluorfen": "+ (‘+’ per each 10-fold resistance)", "tolerance level relative to wild type, Saflufenacil": "++ (‘+’ per each 10-fold resistance)", "tolerance level relative to wild type, Sulfentrazone": "+ (‘+’ per each 10-fold resistance)", "tolerance level relative to wild type, Tiafenacil": "+++ (‘+’ per each 10-fold resistance)"}
{"molecule": "B5", "tolerance level relative to wild type, Carfentrazone": "+ (‘+’ per each 10-fold resistance)", "tolerance level relative to wild type, Flumioxazin": "+++ (‘+’ per each 10-fold resistance)", "tolerance level relative to wild type, Fomesafen": "+++ (‘+’ per each 10-fold resistance)", "tolerance level relative to wild type, Oxyfluorfen": "++ (‘+’ per each 10-fold resistance)", "tolerance level relative to wild type, Saflufenacil": "+++ (‘+’ per each 10-fold resistance)", "tolerance level relative to wild type, Sulfentrazone": "+++ (‘+’ per each 10-fold resistance)", "tolerance level relative to wild type, Tiafenacil": "++++ (‘+’ per each 10-fold resistance)"}
{"molecule": "B6", "tolerance level relative to wild type, Carfentrazone": "+ (‘+’ per each 10-fold resistance)", "tolerance level relative to wild type, Flumioxazin": "++++ (‘+’ per each 10-fold resistance)", "tolerance level relative to wild type, Fomesafen": "+ (‘+’ per each 10-fold resistance)", "tolerance level relative to wild type, Oxyfluorfen": "++ (‘+’ per each 10-fold resistance)", "tolerance level relative to wild type, Saflufenacil": "++ (‘+’ per each 10-fold resistance)", "tolerance level relative to wild type, Sulfentrazone": "+++ (‘+’ per each 10-fold resistance)", "tolerance level relative to wild type, Tiafenacil": "++++ (‘+’ per each 10-fold resistance)"}
{"molecule": "B7", "tolerance level relative to wild type, Carfentrazone": "+ (‘+’ per each 10-fold resistance)", "tolerance level relative to wild type, Flumioxazin": "++++ (‘+’ per each 10-fold resistance)", "tolerance level relative to wild type, Fomesafen": "++ (‘+’ per each 10-fold resistance)", "tolerance level relative to wild type, Oxyfluorfen": "++ (‘+’ per each 10-fold resistance)", "tolerance level relative to wild type, Saflufenacil": "+ (‘+’ per each 10-fold resistance)", "tolerance level relative to wild type, Sulfentrazone": "++ (‘+’ per each 10-fold resistance)", "tolerance level relative to wild type, Tiafenacil": "++++ (‘+’ per each 10-fold resistance)"}
{"molecule": "B8", "tolerance level relative to wild type, Carfentrazone": "+ (‘+’ per each 10-fold resistance)", "tolerance level relative to wild type, Flumioxazin": "++++ (‘+’ per each 10-fold resistance)", "tolerance level relative to wild type, Fomesafen": "+++ (‘+’ per each 10-fold resistance)", "tolerance level relative to wild type, Oxyfluorfen": "++ (‘+’ per each 10-fold resistance)", "tolerance level relative to wild type, Saflufenacil": "+++ (‘+’ per each 10-fold resistance)", "tolerance level relative to wild type, Sulfentrazone": "+++ (‘+’ per each 10-fold resistance)", "tolerance level relative to wild type, Tiafenacil": "++++ (‘+’ per each 10-fold resistance)"}
{"molecule": "B9", "tolerance level relative to wild type, Carfentrazone": "+ (‘+’ per each 10-fold resistance)", "tolerance level relative to wild type, Flumioxazin": "++++ (‘+’ per each 10-fold resistance)", "tolerance level relative to wild type, Fomesafen": "+ (‘+’ per each 10-fold resistance)", "tolerance level relative to wild type, Oxyfluorfen": "++ (‘+’ per each 10-fold resistance)", "tolerance level relative to wild type, Saflufenacil": "++ (‘+’ per each 10-fold resistance)", "tolerance level relative to wild type, Sulfentrazone": "++ (‘+’ per each 10-fold resistance)", "tolerance level relative to wild type, Tiafenacil": "++++ (‘+’ per each 10-fold resistance)"}
